Assay results from US20250163186A1 (PHYLAXIS BIOSCIENCE, published 2025).
Read-outs that look alike come from different tables or passages of the source.

Columns and labels:
Test in all cases: flow cytometry, 293 cells expressing human IgE CH2-4
[1] = molecular target: T1, CH2-4 constant domains of human IgE linked to a transmembrane protein, on 293 cells (human, UniProt P01854-1 104-428)
T1 construct: domain: CH2-4 constant domains; also called human IgE-expressing 293 cells
Method: (§1) First, 25 μg of DNA was added to Opti-MEM Reduced Serum Medium (Gibco) mixed with 75 μL of 40 kDa Polyethylenimine (PEI) for a final concentration of 1 μg DNA and 2.5 μg PEI per mL of culture volume. The plasmid DNA was allowed to pre-complex with PEI for 15 minutes before transferring the mixture to 25 mL of 293 cells in a shake flask at a density of 2×10⁶ cells/mL. […] Next, 50 μL of cells were transferred to wells of a round-bottom 96-well assay plate for a total of 50,000 293 cells per well. In a separate 96-well plate, monomeric VHH-hIgG1-Fc fusion proteins were titrated 1:5 in a 8-point dilution series starting at 1 μM in FACS Buffer with the 8th point containing no antibody. 50 μL from each antibody dilution was added to wells containing 50 μL of FACS Buffer with transfected 293 cells which produced a 2-fold dilution of the antibody concentrations from the dilution series resulting in a 500 nM final, starting concentration of the test article titration. The test articles and 293 cells were incubated together at 4° C. for 30 minutes. Next, the 96-well plates were centrifuged at 400×g for 5 minutes and the FACS buffer containing unbound antibody was decanted. Cells were washed 1× with 150 μL 4° C. FACS Buffer. […] The cells were incubated with the fluorophore conjugated detection antibody at 4° C. for 20 minutes. 293 cells were then centrifuged and washed once as described above. Cell pellets were resuspended in 30 μL FACS Buffer and analyzed on an iQue Screener Plus flow cytometer (Sartorius, IntelliCyt) with a 1 second sip time and 1 second void time. Mean fluorescent intensity was calculated using iQue onboard software gating on GFP+ or citrine+ cells.

[2] = molecular target: T1, CH2-4 constant domains of human IgE …; remark: listed apart in the source
Method: as §1

[3] = molecular target: T1, CH2-4 constant domains of human IgE …; remark: listed apart in the source
Method: as §1

T1 sequence (P01854 other isoform, or with tags, fused parts or gaps): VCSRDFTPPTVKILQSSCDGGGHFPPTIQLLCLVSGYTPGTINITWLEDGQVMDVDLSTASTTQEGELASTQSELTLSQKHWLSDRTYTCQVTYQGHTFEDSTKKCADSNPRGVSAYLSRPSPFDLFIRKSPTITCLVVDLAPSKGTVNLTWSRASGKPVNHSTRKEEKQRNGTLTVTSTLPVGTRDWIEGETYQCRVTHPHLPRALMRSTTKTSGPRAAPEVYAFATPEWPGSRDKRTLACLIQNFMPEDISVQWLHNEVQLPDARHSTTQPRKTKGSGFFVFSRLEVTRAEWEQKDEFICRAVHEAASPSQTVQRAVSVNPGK

Bmax [1] [MFI]	Kd [1] [nM]	Bmax [2] [MFI]	Kd [2] [nM]	further results	Binder
753000	1.16				hzB10v27-NNT (Fc fusion, monomeric) VHH-Fc: EVQLLESGGGEVQPGGSLRLSCVASGLTFSSYNMGWLRQAPGKEREFVGLSGSSSTSTYYAESVKGRFTISRDNSKNTVYLQMNSLRAEDTAVYYCAARRLLSTYWSDRSWDFWGQGTQVTVEPGGPSVFLFPPKPKDTLMISRTPEVTCVVVDVSHEDPEVKFNWYVDGVEVHNAKTKPREEQYNSTYRVVSVLTVLHQDWLNGKEYKCKVSNKALPAPIEKTISKAKGQPREPQVYTLPPSRDELTKNQVNLTCLVKGFYPSDIAVEWESNGQPENNYKTTPPVLDSDGSFFLNSTLTVDKSRWQQGNVFSCSVMHEALHNHYTQKSLSLSPGK
575000	0.978				hzB10v31-NNT (Fc fusion, monomeric) VHH-Fc: EVQLLESGGGEVQPGGSLRLSCVASGLTFSSYNMGWLRQAPGKEREFVGLSGSSSTSTYYAESVKGRFTISRDNSKNTVYLQMNTLRAEDTAVYYCAARRLLSTYWSDRSWDFWGQGTQVTVEPGGPSVFLFPPKPKDTLMISRTPEVTCVVVDVSHEDPEVKFNWYVDGVEVHNAKTKPREEQYNSTYRVVSVLTVLHQDWLNGKEYKCKVSNKALPAPIEKTISKAKGQPREPQVYTLPPSRDELTKNQVNLTCLVKGFYPSDIAVEWESNGQPENNYKTTPPVLDSDGSFFLNSTLTVDKSRWQQGNVFSCSVMHEALHNHYTQKSLSLSPGK
605000	2.31				hzB10v29-NNT (Fc fusion, monomeric) VHH-Fc: EVQLLESGGGEVQPGGSLRLSCVASGLTFSSYNMGWLRQAPGKEREFVGLSGSSSTSTYYAESVKGRFTISRDNSKNTVYLQMQSLRAEDTAVYYCAARRLLSTYWSDRSWDFWGQGTQVTVEPGGPSVFLFPPKPKDTLMISRTPEVTCVVVDVSHEDPEVKFNWYVDGVEVHNAKTKPREEQYNSTYRVVSVLTVLHQDWLNGKEYKCKVSNKALPAPIEKTISKAKGQPREPQVYTLPPSRDELTKNQVNLTCLVKGFYPSDIAVEWESNGQPENNYKTTPPVLDSDGSFFLNSTLTVDKSRWQQGNVFSCSVMHEALHNHYTQKSLSLSPGK
1.12e+08	7070				hzB10v28-NNT (Fc fusion, monomeric) VHH-Fc: EVQLLESGGGEVQPGGSLRLSCVASGLTFSSYNMGWLRQAPGKEREFVGLSGSSSTSTYYAESVKGRFTISRDNSKNTVYLQMSSLRAEDTAVYYCAARRLLSTYWSDRSWDFWGQGTQVTVEPGGPSVFLFPPKPKDTLMISRTPEVTCVVVDVSHEDPEVKFNWYVDGVEVHNAKTKPREEQYNSTYRVVSVLTVLHQDWLNGKEYKCKVSNKALPAPIEKTISKAKGQPREPQVYTLPPSRDELTKNQVNLTCLVKGFYPSDIAVEWESNGQPENNYKTTPPVLDSDGSFFLNSTLTVDKSRWQQGNVFSCSVMHEALHNHYTQKSLSLSPGK
617000	1.94				hzB10v33-NNT (Fc fusion, monomeric) VHH-Fc: EVQLLESGGGEVQPGGSLRLSCVASGLTFSSYNMGWLRQAPGKEREFVSLSGSSSTSTYYAESVKGRFTISRDNSKNTVYLQMNSLRAEDTAVYYCAARRLLSTYWSDRSWDFWGQGTQVTVEPGGPSVFLFPPKPKDTLMISRTPEVTCVVVDVSHEDPEVKFNWYVDGVEVHNAKTKPREEQYNSTYRVVSVLTVLHQDWLNGKEYKCKVSNKALPAPIEKTISKAKGQPREPQVYTLPPSRDELTKNQVNLTCLVKGFYPSDIAVEWESNGQPENNYKTTPPVLDSDGSFFLNSTLTVDKSRWQQGNVFSCSVMHEALHNHYTQKSLSLSPGK
375000	0.55				hzB10v34-NNT (Fc fusion, monomeric) VHH-Fc: EVQLLESGGGEVQPGGSLRLSCVASGLTFSSYNMGWVRQAPGKEREFVSLSGSSSTSTYYAESVKGRFTISRDNSKNTVYLQMNSLRAEDTAVYYCAARRLLSTYWSDRSWDFWGQGTQVTVEPGGPSVFLFPPKPKDTLMISRTPEVTCVVVDVSHEDPEVKFNWYVDGVEVHNAKTKPREEQYNSTYRVVSVLTVLHQDWLNGKEYKCKVSNKALPAPIEKTISKAKGQPREPQVYTLPPSRDELTKNQVNLTCLVKGFYPSDIAVEWESNGQPENNYKTTPPVLDSDGSFFLNSTLTVDKSRWQQGNVFSCSVMHEALHNHYTQKSLSLSPGK
706000	1.33				hzB10v32-NNT (Fc fusion, monomeric) VHH-Fc: EVQLLESGGGEVQPGGSLRLSCVASGLTFSSYNMGWVRQAPGKEREFVGLSGSSSTSTYYAESVKGRFTISRDNSKNTVYLQMNSLRAEDTAVYYCAARRLLSTYWSDRSWDFWGQGTQVTVEPGGPSVFLFPPKPKDTLMISRTPEVTCVVVDVSHEDPEVKFNWYVDGVEVHNAKTKPREEQYNSTYRVVSVLTVLHQDWLNGKEYKCKVSNKALPAPIEKTISKAKGQPREPQVYTLPPSRDELTKNQVNLTCLVKGFYPSDIAVEWESNGQPENNYKTTPPVLDSDGSFFLNSTLTVDKSRWQQGNVFSCSVMHEALHNHYTQKSLSLSPGK
		2.75e+06	2.74		hzB10v8-NNT (Fc fusion, monomeric) VHH-Fc: EVQLVQSGGELVQAGGSLRLSCVASGLTFSSYNMGWLRQAPGKEREFVGISGSSSTSTYYADSVKGRFTISRDNSKNTVYLQMNSLKPEDTAVYYCAARRMLSTYWSDRSWDFWGQGTQVTVKPGGPSVFLFPPKPKDTLMISRTPEVTCVVVDVSHEDPEVKFNWYVDGVEVHNAKTKPREEQYNSTYRVVSVLTVLHQDWLNGKEYKCKVSNKALPAPIEKTISKAKGQPREPQVYTLPPSRDELTKNQVNLTCLVKGFYPSDIAVEWESNGQPENNYKTTPPVLDSDGSFFLNSTLTVDKSRWQQGNVFSCSVMHEALHNHYTQKSLSLSPGK
		2.83e+06	2.82		hzB10v9-NNT (Fc fusion, monomeric) VHH-Fc: EVQLVQSGGELVQAGGSLRLSCVASGLTFSSYNMGWLRQAPGKEREFVGVSGSSSTSTYYADSVKGRFTISRDNSKNTVYLQMNSLKPEDTAVYYCAARRMLSTYWSDRSWDFWGQGTQVTVKPGGPSVFLFPPKPKDTLMISRTPEVTCVVVDVSHEDPEVKFNWYVDGVEVHNAKTKPREEQYNSTYRVVSVLTVLHQDWLNGKEYKCKVSNKALPAPIEKTISKAKGQPREPQVYTLPPSRDELTKNQVNLTCLVKGFYPSDIAVEWESNGQPENNYKTTPPVLDSDGSFFLNSTLTVDKSRWQQGNVFSCSVMHEALHNHYTQKSLSLSPGK
				Bmax [3]: 2.46e+06 MFI; Kd [3]: 1.81 nM	hzB10v2-NNT (Fc fusion, monomeric) VHH-Fc: EVQLVQSGGELVQAGGSLRLSCVASGLTFSSYNMGWVRQAPGKEREFVSMSGSSSTSTYYADSVKGRFTISRDNSKNTVYLQMNSLKPEDTAVYYCAARRMLSTYWSDRSWDFWGQGTQVTVKPGGPSVFLFPPKPKDTLMISRTPEVTCVVVDVSHEDPEVKFNWYVDGVEVHNAKTKPREEQYNSTYRVVSVLTVLHQDWLNGKEYKCKVSNKALPAPIEKTISKAKGQPREPQVYTLPPSRDELTKNQVNLTCLVKGFYPSDIAVEWESNGQPENNYKTTPPVLDSDGSFFLNSTLTVDKSRWQQGNVFSCSVMHEALHNHYTQKSLSLSPGK
				Bmax [3]: 1.69e+06 MFI; Kd [3]: 342 nM	hzB10v3-NNT (Fc fusion, monomeric) VHH-Fc: EVQLVQSGGELVQAGGSLRLSCVASGLTFSSYNMGWVRQAPGKEREFVGMSGSSSTSTYYADSVKGRFTISRDNSKNTVYLQMNSLKPEDTAVYYCAARRMLSTYWSDRSWDFWGQGTQVTVKPGGPSVFLFPPKPKDTLMISRTPEVTCVVVDVSHEDPEVKFNWYVDGVEVHNAKTKPREEQYNSTYRVVSVLTVLHQDWLNGKEYKCKVSNKALPAPIEKTISKAKGQPREPQVYTLPPSRDELTKNQVNLTCLVKGFYPSDIAVEWESNGQPENNYKTTPPVLDSDGSFFLNSTLTVDKSRWQQGNVFSCSVMHEALHNHYTQKSLSLSPGK
		3.41e+06	15.6		hzB10v11-NNT (Fc fusion, monomeric) VHH-Fc: EVQLVQSGGELVQAGGSLRLSCVASGLTFSSYNMGWLRQAPGKEREFVGMSGSSSTSTYYADSVKGRFTISRDNSKNTVYLQMNSLKPEDTAVYYCAARRILSTYWSDRSWDFWGQGTQVTVKPGGPSVFLFPPKPKDTLMISRTPEVTCVVVDVSHEDPEVKFNWYVDGVEVHNAKTKPREEQYNSTYRVVSVLTVLHQDWLNGKEYKCKVSNKALPAPIEKTISKAKGQPREPQVYTLPPSRDELTKNQVNLTCLVKGFYPSDIAVEWESNGQPENNYKTTPPVLDSDGSFFLNSTLTVDKSRWQQGNVFSCSVMHEALHNHYTQKSLSLSPGK
		2.76e+06	1.19		hzB10v10-NNT (Fc fusion, monomeric) VHH-Fc: EVQLVQSGGELVQAGGSLRLSCVASGLTFSSYNMGWLRQAPGKEREFVGMSGSSSTSTYYADSVKGRFTISRDNSKNTVYLQMNSLKPEDTAVYYCAARRLLSTYWSDRSWDFWGQGTQVTAKPGGPSVFLFPPKPKDTLMISRTPEVTCVVVDVSHEDPEVKFNWYVDGVEVHNAKTKPREEQYNSTYRVVSVLTVLHQDWLNGKEYKCKVSNKALPAPIEKTISKAKGQPREPQVYTLPPSRDELTKNQVNLTCLVKGFYPSDIAVEWESNGQPENNYKTTPPVLDSDGSFFLNSTLTVDKSRWQQGNVFSCSVMHEALHNHYTQKSLSLSPGK
